# Data published in patent US7238668B1, “Inhibition of lymphocyte adherence with CS-1-peptides and fragments thereof” (Fred Hutchinson Cancer Research Center, priority 1989, dated 2007).
# Like-named read-outs stand apart in the source and are kept apart here. Ends that are not written are not given here.
# B1: CS-1 peptide (peptide)
# peptide: DELPQLVTLPHPNLHGPEILDVPST
# notes: Free peptide; also called peptide 344; synthetic CS-1
# Assays:
# [1] = system: T lymphocytes (Jurkat or Molt 4 cells); assay: T lymphocyte adhesion to plasma fibronectin, tryptic fragments and CS peptides; assay type: cell-based, human
# Procedure: Antibodies that would alter cell adhesion to purified plasma fibronectin, tryptic fragments and CS peptides were identified as previously described (Wayner and Carter, 1987). […] The plates were blocked with PBS supplemented with 10 mg/ml heat denatured BSA (HBSA). T lymphocyte or HT1080 cells were labeled with Na2 ^51CrO4 (50 μlCi/ml for 2–4 hr), washed, and 5×10^4 HT1080 or cultured T cells or […] were incubated with hybridoma culture supernatants (1:2 dilution in PBS supplemented with 1 mg/ml heat denatured BSA) or control myeloma cell culture supernatant for 15 minutes at room temperature. The cells were allowed to adhere to the protein-coated surfaces in the presence of the hybridoma supernatants for 15–30 minutes (HT1080) or 2–4 hours (lymphocytes) at 37° C. Non-adherent cells were removed by washing with PBS, and the adherent cells were dissolved in SDS/NaOH and bound ^51Cr-cpm were quantitated in a gamma counter.
# Human plasma fibronectin was a generous gift from Drs. Horowitz and R. Schulman (New York Blood Center, N.Y.). […] Two overlapping peptides spanning the initial 48 residues of the IIICS region of human fibronectin (CS-1 and CS-2) were synthesized and coupled to rabbit IgG as described (Humphries et al., 1986, and Humphries et al., 1987, J. Biol. Chem. 262:6886–6892).
# [2] = system: Jurkat cells; assay: Peptide inhibition of Jurkat cell adhesion to plasma fibronectin (50% inhibition point); assay type: cell-based, human; conditions: read-out: Molar Concentration (mM) required for 50% inhibition of Jurkat cell adhesion to plasma fibronectin; fibronectin 5 ug/ml; 30 min
# Procedure: For peptide inhibition studies, ^51Cr-labeled test cells were pre-incubated with CS-1 derived peptides at various concentrations for 15 min at room temperature. The test cells were then allowed to attach to fibronectin-coated surfaces in the presence of exogenous test peptides for 30–60 min. The assay then proceeded as described above.
# For these experiments in Table XIII ^51Cr-labeled Jurkat cells (10^5/well) were incubated in the presence of the varying concentrations (starting at 2 mg/ml) of the indicated peptides for 15 min. The Jurkat cells were then allowed to adhere to plasma fibronectin-coated surfaces (5 ug/ml) in the presence of the peptides for 30 min. Adhesion to fibronectin was graphically depicted as cpm bound to the fibronectin surface (Y axis), plotted as a function of molar peptide concentration (X axis).
# [3] = system: LAD (B) lymphocyte adhesion to HUVE monolayers; assay: Endothelial cell adhesion assay, LAD cells on HUVE monolayers; assay type: cell-based, human; conditions: for Adhesion (cpm) Basal: basal HUVE; for Adhesion (cpm) +IL-1β: IL-1β activated HUVE
# Procedure: (§1) HUVEs were incubated with IL-1 β (1 ng/ml) or in some experiments with TNF α (10 ng/ml) for 6–24 hours. At the end of this incubation the HUVE monolayers were washed and used in the adhesion assay.
# (§2) Human umbilical vein endothelial cells (HUVEs) were cultured in 48 well plates as described (supra). To measure adherence of lymphocytes to HUVE monolayer cultures, lymphocytes were labeled with Na2 ^51CrO4 (50 μCi/ml) for 2–4 hours), washed, and then 10^5 lymphocytes were incubated with HUVE monolayers in the presence or absence of inhibitory antibodies or CS-1 derived peptides. The lymphocytes were allowed to adhere for 30 minutes at 37°. Non-adherent cells were subsequently removed by washing with PBS, and the adherent cells were dissolved in SDS/NaOH. Bound ^51Cr-cpm were quantitated in a gamma counter. In some experiments, endothelial cells were activated prior to the adhesion assay by incubating with IL-1 β (1 ng/ml) or […] (10 ng/ml) for 6–24 hours in defined CS-100 media (Cell Systems, Seattle, Wash.).
# [4] = system: Jurkat (T) lymphocyte adhesion to HUVE monolayers; assay: Endothelial cell adhesion assay, Jurkat cells on HUVE monolayers; assay type: cell-based, human; conditions: for Adhesion (cpm) Basal: basal HUVE; for Adhesion (cpm) +IL-1β: IL-1β activated HUVE
# Procedure: as §1, §2
# [5] = system: Ramos (B) lymphocyte adhesion to HUVE monolayers; assay: Endothelial cell adhesion assay, Ramos cells on HUVE monolayers; assay type: cell-based, human; conditions: for Adhesion (cpm) Basal: basal HUVE; for Adhesion (cpm) +IL-1β: IL-1β activated HUVE
# Procedure: as §1, §2
# [6] = biological target: T1, integrin receptor α4β1 (human, UniProt P13612 34-1032; P05556 21-798); assay: cell-based or functional assay
# T1 sequence (P13612 34-1032, form in doubt, chain 1 of 2): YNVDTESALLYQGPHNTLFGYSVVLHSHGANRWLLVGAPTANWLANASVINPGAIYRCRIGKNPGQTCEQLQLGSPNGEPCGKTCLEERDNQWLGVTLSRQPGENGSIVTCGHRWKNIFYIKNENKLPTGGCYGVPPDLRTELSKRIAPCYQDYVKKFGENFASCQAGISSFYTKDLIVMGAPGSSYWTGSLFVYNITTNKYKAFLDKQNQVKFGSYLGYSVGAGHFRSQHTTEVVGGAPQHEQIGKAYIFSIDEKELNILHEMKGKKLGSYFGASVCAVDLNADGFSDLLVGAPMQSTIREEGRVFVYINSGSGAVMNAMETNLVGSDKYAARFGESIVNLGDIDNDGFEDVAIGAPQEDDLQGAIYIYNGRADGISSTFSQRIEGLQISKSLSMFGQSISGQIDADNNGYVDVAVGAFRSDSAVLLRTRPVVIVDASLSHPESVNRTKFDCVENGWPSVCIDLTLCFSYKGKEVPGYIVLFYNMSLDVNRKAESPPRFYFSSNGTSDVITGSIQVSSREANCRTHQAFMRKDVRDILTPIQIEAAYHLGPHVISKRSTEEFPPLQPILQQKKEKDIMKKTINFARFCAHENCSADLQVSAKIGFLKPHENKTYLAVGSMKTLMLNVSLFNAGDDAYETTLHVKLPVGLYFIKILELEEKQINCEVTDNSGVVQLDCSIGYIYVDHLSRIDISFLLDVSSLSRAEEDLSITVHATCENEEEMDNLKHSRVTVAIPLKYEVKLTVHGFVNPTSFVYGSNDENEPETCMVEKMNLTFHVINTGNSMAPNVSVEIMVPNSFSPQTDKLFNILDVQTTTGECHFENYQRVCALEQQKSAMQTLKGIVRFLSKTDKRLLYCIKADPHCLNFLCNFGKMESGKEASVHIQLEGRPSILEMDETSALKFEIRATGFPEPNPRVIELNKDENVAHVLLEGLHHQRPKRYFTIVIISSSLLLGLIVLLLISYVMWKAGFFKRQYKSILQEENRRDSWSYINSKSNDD
# T1 sequence (P05556 21-798, form in doubt, chain 2 of 2): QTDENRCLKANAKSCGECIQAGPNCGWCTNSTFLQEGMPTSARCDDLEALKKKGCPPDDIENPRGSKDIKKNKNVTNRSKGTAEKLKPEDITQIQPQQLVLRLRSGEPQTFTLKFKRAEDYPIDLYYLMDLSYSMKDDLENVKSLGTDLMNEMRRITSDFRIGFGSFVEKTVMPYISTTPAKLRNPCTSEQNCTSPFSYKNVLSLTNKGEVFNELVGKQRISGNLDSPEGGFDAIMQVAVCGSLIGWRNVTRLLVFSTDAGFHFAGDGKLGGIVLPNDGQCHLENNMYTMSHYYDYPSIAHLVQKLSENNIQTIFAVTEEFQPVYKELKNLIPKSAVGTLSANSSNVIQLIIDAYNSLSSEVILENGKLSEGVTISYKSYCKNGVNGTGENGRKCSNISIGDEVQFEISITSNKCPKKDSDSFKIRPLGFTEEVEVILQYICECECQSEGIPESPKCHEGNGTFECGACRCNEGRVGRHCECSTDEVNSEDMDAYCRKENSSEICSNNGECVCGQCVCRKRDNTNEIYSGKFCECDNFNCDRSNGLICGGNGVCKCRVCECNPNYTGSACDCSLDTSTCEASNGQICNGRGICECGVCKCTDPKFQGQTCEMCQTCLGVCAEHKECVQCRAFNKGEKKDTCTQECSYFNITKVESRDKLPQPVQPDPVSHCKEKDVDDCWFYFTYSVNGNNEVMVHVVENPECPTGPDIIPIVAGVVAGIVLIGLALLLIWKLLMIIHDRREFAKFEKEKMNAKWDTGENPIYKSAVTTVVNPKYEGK
# [7] = system: Jurkat cells; assay: Jurkat cell adhesion to surfaces coated with peptide-rsa conjugates; assay type: cell-based, human
# Procedure: ^51Cr-labeled Jurkat cells ([…]) were incubated on surfaces coated with varying concentrations of peptide-rsa conjugates starting at 50 ug/ml (w/v) fragment or peptide (based on peptide not peptide-conjugate weight). […] (No adhesion=no measurable adhesion above negative controls.)
# Adhesion of various hematopoetic cell lines to CS-1 (open bars; FIG. 12) or LDV minimal peptide-coated surfaces (cross-hatched bars; FIG. 12) was tested as follows: Jurkat (T lymphoblastoid), A375 (melanoma), U937 (monocytic), Ramos (B lymphoblastoid), and ST-1 (EBV transformed B lymphoblastoid) cells were allowed to adhere to CS-1-rsa or LDVPST-rsa (5 ug/ml peptide) coated surfaces for 30 min at 37° C. At the end of this time the non-adherent cells were washed off and the adherent cells were solubilized in NaOH/SDS and quantitated in a gamma counter. The results are expressed as bound counts per minute.
# [8] = biological target: integrin β1 subunit (human) (UniProt P05556); assay: cell-based or functional assay
# Chain of integrin β1 subunit (human) (P05556 21-798): as the sequence (P05556 21-798, form in doubt, chain 2 of 2) above
# [9] = biological target: T1, integrin receptor α4β1; assay: soluble peptide against 51Cr-Jurkat adhesion to plasma fibronectin (5 ug/ml coat); 50% inhibition point read from plot
# Procedure: For these experiments in Table XIII ^51Cr-labeled Jurkat cells (10^5/well) were incubated in the presence of the varying concentrations (starting at 2 mg/ml) of the indicated peptides for 15 min.
# [10] = biological target: T1, integrin receptor α4β1; assay: cell-based or functional assay; remark: listed apart in the source
# [11] = biological target: T1, integrin receptor α4β1; assay: cell-based or functional assay; remark: listed apart in the source
# [12] = biological target: integrin α5β1 (human, UniProt P08648 42-1049; P05556 21-798); assay: cell-based or functional assay
# Chain of integrin α5β1 (P08648 42-1049, chain 1 of 2): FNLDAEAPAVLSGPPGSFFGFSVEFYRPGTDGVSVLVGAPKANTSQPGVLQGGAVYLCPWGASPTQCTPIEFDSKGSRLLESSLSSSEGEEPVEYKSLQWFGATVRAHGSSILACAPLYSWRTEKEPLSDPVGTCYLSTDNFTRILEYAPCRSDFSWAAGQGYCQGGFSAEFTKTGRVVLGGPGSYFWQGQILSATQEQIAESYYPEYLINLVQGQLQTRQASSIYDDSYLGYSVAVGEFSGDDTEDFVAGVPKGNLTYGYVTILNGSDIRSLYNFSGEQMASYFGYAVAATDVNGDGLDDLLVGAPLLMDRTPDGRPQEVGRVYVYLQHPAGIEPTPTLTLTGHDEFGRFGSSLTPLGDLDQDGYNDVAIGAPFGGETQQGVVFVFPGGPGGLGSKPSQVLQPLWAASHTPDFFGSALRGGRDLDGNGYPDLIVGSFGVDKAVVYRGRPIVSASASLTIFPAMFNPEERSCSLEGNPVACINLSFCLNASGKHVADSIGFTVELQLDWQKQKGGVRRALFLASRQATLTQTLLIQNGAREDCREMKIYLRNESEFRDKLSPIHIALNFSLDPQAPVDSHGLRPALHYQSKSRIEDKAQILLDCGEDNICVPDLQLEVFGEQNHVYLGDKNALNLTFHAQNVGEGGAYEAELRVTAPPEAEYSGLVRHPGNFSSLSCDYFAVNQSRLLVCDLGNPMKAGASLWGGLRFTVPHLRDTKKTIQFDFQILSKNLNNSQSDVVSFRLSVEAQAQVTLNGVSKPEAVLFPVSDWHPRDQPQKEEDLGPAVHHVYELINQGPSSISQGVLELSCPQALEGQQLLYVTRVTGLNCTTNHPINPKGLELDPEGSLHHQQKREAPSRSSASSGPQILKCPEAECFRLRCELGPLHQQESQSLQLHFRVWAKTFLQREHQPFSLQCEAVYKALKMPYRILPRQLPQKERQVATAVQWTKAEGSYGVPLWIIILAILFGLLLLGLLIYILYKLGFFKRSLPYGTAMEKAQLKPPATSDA
# Chain of integrin α5β1 (P05556 21-798, chain 2 of 2): as the sequence (P05556 21-798, form in doubt, chain 2 of 2) above
molecule,measurement,setting,value
"CS-1 (rabbit IgG conjugate): CS-1 peptide coupled to rabbit IgG (DELPQLVTLPHPNLHGPEILDVPST; also: coupled to rabbit IgG, site not given here)",T lymphocyte attachment to peptide (rabbit IgG conjugate)-coated plastic surfaces,[1],recognize and attach
"CS-2 (rabbit IgG conjugate): CS-2 peptide of the IIICS region coupled to rabbit IgG (PSTVQKTPFVTHPGYDTGNGIQLPGT; also: coupled to rabbit IgG, site not given here)",T lymphocyte attachment to peptide (rabbit IgG conjugate)-coated plastic surfaces,[1],do not attach
"DELPQLVTLPHPN [Peptide A13, N-terminal peptide of CS-1]",IC50,[2],> 1 mM
"DELPQLVTLPHPNLHGPEILDVPST [Peptide 344, synthetic CS-1 peptide of the fibronectin IIICS region]",Adhesion (cpm) Basal,"[3]; peptides, Table X",17500 cpm
same,Adhesion (cpm) Basal,"[4]; peptides, Table X",29568 cpm
same,Adhesion (cpm) Basal,"[5]; peptides, Table X",1660 cpm
LDVPST [Peptide 351],Adhesion (cpm) +IL-1β,"[3]; Table XI, no peptide 71408",92792 cpm
same,Adhesion (cpm) Basal,"[3]; Table XI, no peptide 44860",39700 cpm
same,IC50,[2],> 1.6 mM
same,Adhesion (cpm) +IL-1β,"[4]; Table XI, no peptide 314848",326260 cpm
same,Adhesion (cpm) Basal,"[4]; Table XI, no peptide 161092",166948 cpm
same,Adhesion (cpm) +IL-1β,"[5]; Table XI, no peptide 12936",15092 cpm
same,Adhesion (cpm) Basal,"[5]; Table XI, no peptide 2724",3532 cpm
LDVPST peptide,"Adhesion (cpm), Jurkat (T) on HUVE, +IL-1β; no peptide 314848",[6],326000 cpm
same,"Adhesion (cpm), Jurkat (T) on HUVE, Basal; no peptide 161092",[6],167000 cpm
same,"Adhesion (cpm), LAD (B) on HUVE, +IL-1β; no peptide 71408",[6],92800 cpm
same,"Adhesion (cpm), LAD (B) on HUVE, Basal; no peptide 44860",[6],39700 cpm
same,"Adhesion (cpm), Ramos (B) on HUVE, +IL-1β; no peptide 12936",[6],15100 cpm
same,"Adhesion (cpm), Ramos (B) on HUVE, Basal; no peptide 2724",[6],3530 cpm
VPST [Peptide 350],Adhesion (cpm) +IL-1β,"[3]; Table XI, no peptide 71408",98860 cpm
same,Adhesion (cpm) +IL-1β,"[3]; peptides, Table X",42728 cpm
same,Adhesion (cpm) Basal,"[3]; Table XI, no peptide 44860",38176 cpm
same,IC50,[2],> 2.5 mM
same,Adhesion (cpm) +IL-1β,"[4]; Table XI, no peptide 314848",322208 cpm
same,Adhesion (cpm) +IL-1β,"[4]; peptides, Table X",127544 cpm
same,Adhesion (cpm) Basal,"[4]; Table XI, no peptide 161092",203716 cpm
same,Adhesion (cpm) +IL-1β,"[5]; Table XI, no peptide 12936",15320 cpm
same,Adhesion (cpm) +IL-1β,"[5]; peptides, Table X",4568 cpm
same,Adhesion (cpm) Basal,"[5]; Table XI, no peptide 2724",4168 cpm
VPST-rsa: VPST conjugated to rabbit serum albumin (also: conjugated to rabbit serum albumin),Induction of stable cell adhesion,"[7]; FIGS. 13-15, Jurkat, U937 and HUT 78 cells",relatively inactive in inducing stable cell adhesion
leu-asp-val (Leu-Asp-Val; not fully specified; printed as leu-asp-val) [LDV],IC50,[2],> 2.7 mM
monoclonal antibody 8A2,"concentration of 8A2 able to stimulate increased avidity of a low avidity α4β1 receptor complex for fibronectin, CS-1, or LDV minimal peptides",[8],0.1 µg/mL
monoclonal antibody P4C10,"Adhesion (cpm), Jurkat (T) on HUVE monolayers, +IL-1β; SP2 control 372159",[8],230000 cpm
same,"Adhesion (cpm), Jurkat (T) on HUVE monolayers, Basal; SP2 control 83924",[8],36900 cpm
same,"Adhesion (cpm), LAD (B) on HUVE monolayers, +IL-1β; SP2 control 104672",[8],52600 cpm
same,"Adhesion (cpm), LAD (B) on HUVE monolayers, Basal; SP2 control 19542",[8],6360 cpm
same,"Adhesion (cpm), Ramos (B) on HUVE monolayers, +IL-1β; SP2 control 12157",[8],3150 cpm
same,"Adhesion (cpm), Ramos (B) on HUVE monolayers, Basal; SP2 control 972",[8],604 cpm
rsa-A13: A13 peptide conjugated to rabbit serum albumin (DELPQLVTLPHPN; also: conjugated to rabbit serum albumin),Molar Concentration (nM) required for 50% adhesion of Jurkat cells,"[7]; peptide-rsa conjugate coated surfaces, 50% of total input cpm",No Adhesion
rsa-LDV: LDV conjugated to rabbit serum albumin (Leu-Asp-Val; also: conjugated to rabbit serum albumin),EC50,"[7]; peptide-rsa conjugate coated surfaces, 50% of total input cpm, read-out: Molar Concentration (nM) required for 50% adhesion of Jurkat cells",> 2000 nM
EILDV [EILDV peptide],IC50,[9],660 µM
B1,"Adhesion (cpm), Jurkat (T) on HUVE, +IL-1β; unrelated peptide 293(A) 129864",[10],75800 cpm
same,"Adhesion (cpm), LAD (B) on HUVE, +IL-1β; unrelated peptide 293A 74096",[10],26200 cpm
same,"Adhesion (cpm), Ramos (B) on HUVE, +IL-1β; unrelated peptide 293A 11132",[10],2830 cpm
same,IC50,[9],180 µM
same,"Adhesion (cpm), Jurkat (T) on HUVE, +IL-1β; no peptide 314848",[11],249000 cpm
same,"Adhesion (cpm), Jurkat (T) on HUVE, Basal; no peptide 161092",[11],82400 cpm
same,"Adhesion (cpm), LAD (B) on HUVE, +IL-1β; no peptide 71408",[11],51600 cpm
same,"Adhesion (cpm), LAD (B) on HUVE, Basal; no peptide 44860",[11],23000 cpm
same,"Adhesion (cpm), Ramos (B) on HUVE, +IL-1β; no peptide 12936",[11],5160 cpm
same,"Adhesion (cpm), Ramos (B) on HUVE, Basal; no peptide 2724",[11],1840 cpm
VPST [VPST peptide],"Adhesion (cpm), Jurkat (T) on HUVE, +IL-1β; unrelated peptide 293(A) 129864",[10],128000 cpm
same,"Adhesion (cpm), LAD (B) on HUVE, +IL-1β; unrelated peptide 293A 74096",[10],42700 cpm
same,"Adhesion (cpm), Ramos (B) on HUVE, +IL-1β; unrelated peptide 293A 11132",[10],4570 cpm
same,"Adhesion (cpm), Jurkat (T) on HUVE, +IL-1β; no peptide 314848",[11],322000 cpm
same,"Adhesion (cpm), Jurkat (T) on HUVE, Basal; no peptide 161092",[11],204000 cpm
same,"Adhesion (cpm), LAD (B) on HUVE, +IL-1β; no peptide 71408",[11],98900 cpm
same,"Adhesion (cpm), LAD (B) on HUVE, Basal; no peptide 44860",[11],38200 cpm
same,"Adhesion (cpm), Ramos (B) on HUVE, +IL-1β; no peptide 12936",[11],15300 cpm
same,"Adhesion (cpm), Ramos (B) on HUVE, Basal; no peptide 2724",[11],4170 cpm
GPEILDVPST (also called peptide 354) [GPEILDVPST peptide],"Adhesion (cpm), Jurkat (T) on HUVE, +IL-1β; unrelated peptide 293(A) 129864",[10],89700 cpm
same,"Adhesion (cpm), LAD (B) on HUVE, +IL-1β; unrelated peptide 293A 74096",[10],27200 cpm
same,"Adhesion (cpm), Ramos (B) on HUVE, +IL-1β; unrelated peptide 293A 11132",[10],2260 cpm
same,IC50,[9],450 µM
LHGPEILDVPST (also called CS-1-B12) [B12 peptide],IC50,[9],400 µM
RGDS [RGDS peptide],"Adhesion (cpm), Jurkat (T) on HUVE, +IL-1β; no peptide 314848",[12],358000 cpm
same,"Adhesion (cpm), Jurkat (T) on HUVE, Basal; no peptide 161092",[12],299000 cpm
same,"Adhesion (cpm), LAD (B) on HUVE, +IL-1β; no peptide 71408",[12],102000 cpm
same,"Adhesion (cpm), LAD (B) on HUVE, Basal; no peptide 44860",[12],70700 cpm
same,"Adhesion (cpm), Ramos (B) on HUVE, +IL-1β; no peptide 12936",[12],28100 cpm
same,"Adhesion (cpm), Ramos (B) on HUVE, Basal; no peptide 2724",[12],16900 cpm
